Like-named read-outs stand apart in the source and are kept apart here.
What was measured:
Assay in all cases: cell-based or functional assay
[1] = molecular target: T1, EGFR on tumor target cells (MCF-7, Daudi, DK-MG, HCT-116) (UniProt P00533 25-1210, limits assumed)
[2] = molecular target: T1, EGFR on tumor target cells (MCF-7, …); remark: listed apart in the source
[3] = molecular target: T1, EGFR on tumor target cells (MCF-7, …); remark: listed apart in the source
[4] = molecular target: CD16A on primary human NK cells (human, UniProt P08637 17-254)
CD16A on primary human NK cells, sequence (P08637 17-254 limits assumed): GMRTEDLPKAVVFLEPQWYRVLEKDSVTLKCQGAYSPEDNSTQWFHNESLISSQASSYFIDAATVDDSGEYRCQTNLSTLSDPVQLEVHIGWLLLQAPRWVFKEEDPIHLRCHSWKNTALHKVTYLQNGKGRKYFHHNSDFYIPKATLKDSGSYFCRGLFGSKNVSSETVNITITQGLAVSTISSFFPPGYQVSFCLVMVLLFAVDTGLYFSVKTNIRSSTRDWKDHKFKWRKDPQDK

Binder	Emax [%], 4 h calcein-release cytotoxicity on Daudi target cells, NK cells E:T 5:1 [1] [%]	EC50 [pM], 4 h calcein-release cytotoxicity on MCF-7 target cells, NK cells E:T 5:1 [2] [pM]	Emax [%], 4 h calcein-release cytotoxicity on MCF-7 target cells, NK cells E:T 5:1 [2] [%]	EC50 [pM], 4 h calcein-release cytotoxicity on Daudi target cells, NK cells E:T 5:1 [3] [pM]	Emax [%], 4 h calcein-release cytotoxicity on Daudi target cells, NK cells E:T 5:1 [3] [%]	Emax [%], 4 h calcein-release NK cell fratricide assay, E:T 1:1 [4] [%]	EC50 [pM], 4 h calcein-release NK cell fratricide assay, E:T 1:1 [4] [pM]
scFv-Fc-scDb_04 (bispecific antibody) QVQLQESGPGLVKPSETLSLTCTVSGGSVSSGSYYWSWIRQPPGKGLEWIGYIYYSGSTNYNPSLKSRVTISVDTSKNQFSLKLSSVTAADTAVYYCARNPISIPAFDIWGQGTMVTVSSGGSGGSGGSGGSGGSGGSQPVLTQPPSVSVAPGKTARITCGGNNIGSKSVHWYQQKPGQAPVLVIYYDSDRPSGIPERFSGSNSGNTATLTISRVEAGDEADYYCQVWDTSSDHVLFGGGTKLTVLGGGGSDKTHTCPPCPAPEFEGGPSVFLFPPKPKDTLMISRTPEVTCVVVAVSHEDPEVKFNWYVDGVEVHNAKTKPREEQYGSTYRVVSVLTVLHQDWLNGKEYKCKVSNKALPAPIEKTISKAKGQPREPQVYTLPPSREEMTKNQVSLTCLVKGFYPSDIAVEWESNGQPENNYKTTPPVLDSDGSFFLYSKLTVDKSRWQQGNVFSCSVMHEALHNHYTQKSLSLSPGGGGGSGGGGSSYELTQPLSVSVALGQTARITCGGHNIGSKNVHWYQQKPGQAPVLVIYQDNKRPSGIPERFSGSNSGNTATLTISRAQAGDEADYYCQVWDNYNVLFGCGTKLTVLGGSGGSQVQLVQSGAEVKKPGASVKVSCKASGYTFTSYYMHWVRQAPGQCLEWMGAIEPTYGSTSYAQKFQGRVTMTRDTSTSTVYMELSSLRSEDTAVYYCARGSAYYYDFADYWGQGTLVTVSSGGSGGSGGSGGSGGSGGSSYELTQPLSVSVALGQTARITCGGHNIGSKNVHWYQQKPGQAPVLVIYQDNKRPSGIPERFSGSNSGNTATLTISRAQAGDEADYYCQVWDNYNVLFGCGTKLTVLGGSGGSQVQLVQSGAEVKKPGASVKVSCKASGYTFTSYYMHWVRQAPGQCLEWMGAIEPTYGSTSYAQKFQGRVTMTRDTSTSTVYMELSSLRSEDTAVYYCARGSAYYYDFADYWGQGTLVTVSS	22.6	–	–	–	–	–	–
Bi-scDb-IgAb_06 (bispecific antibody) heavy: QVQLQESGPGLVKPSETLSLTCTVSGGSVSSGSYYWSWIRQPPGKGLEWIGYIYYSGSTNYNPSLKSRVTISVDTSKNQFSLKLSSVTAADTAVYYCARNPISIPAFDIWGQGTMVTVSSASTKGPSVFPLAPSSKSTSGGTAALGCLVKDYFPEPVTVSWNSGALTSGVHTFPAVLQSSGLYSLSSVVTVPSSSLGTQTYICNVNHKPSNTKVDKKVEPKSCDKTHTCPPCPAPEFEGGPSVFLFPPKPKDTLMISRTPEVTCVVVAVSHEDPEVKFNWYVDGVEVHNAKTKPREEQYNSTYRVVSVLTVLHQDWLNGKEYKCKVSNKALPAPIEKTISKAKGQPREPQVYTLPPSREEMTKNQVSLTCLVKGFYPSDIAVEWESNGQPENNYKTTPPVLDSDGSFFLYSKLTVDKSRWQQGNVFSCSVMHEALHNHYTQKSLSLSPGGGGGSGGGGSSYVLTQPSSVSVAPGQTATISCGGHNIGSKNVHWYQQRPGQSPVLVIYQDNKRPSGIPERFSGSNSGNTATLTISGTQAMDEADYYCQVWDNYSVLFGGGTKLTVLGGSGGSQVQLVQSGAEVKKPGESLKVSCKASGYTFTSYYMHWVRQAPGQGLEWMGAIEPMYGSTSYAQKFQGRVTMTRDTSTSTVYMELSSLRSEDTAVYYCARGSAYYYDFADYWGQGTLVTVSSGGSGGSGGSGGSGGSGGSSYVLTQPSSVSVAPGQTATISCGGHNIGSKNVHWYQQRPGQSPVLVIYQDNKRPSGIPERFSGSNSGNTATLTISGTQAMDEADYYCQVWDNYSVLFGGGTKLTVLGGSGGSQVQLVQSGAEVKKPGESLKVSCKASGYTFTSYYMHWVRQAPGQGLEWMGAIEPMYGSTSYAQKFQGRVTMTRDTSTSTVYMELSSLRSEDTAVYYCARGSAYYYDFADYWGQGTLVTVSS light: QPVLTQPPSVSVAPGKTARITCGGNNIGSKSVHWYQQKPGQAPVLVIYYDSDRPSGIPERFSGSNSGNTATLTISRVEAGDEADYYCQVWDTSSDHVLFGGGTKLTVLGQPKAAPSVTLFPPSSEELQANKATLVCLISDFYPGAVTVAWKADSSPVKAGVETTTPSKQSNNKYAASSYLSLTPEQWKSHRSYSCQVTHEGSTVEKTVAPTECS	–	2.1	25	18.6	18.2	15	–
scFv-IgAb_43 (bispecific antibody) heavy: QVQLQESGPGLVKPSETLSLTCTVSGGSVSSGSYYWSWIRQPPGKGLEWIGYIYYSGSTNYNPSLKSRVTISVDTSKNQFSLKLSSVTAADTAVYYCARNPISIPAFDIWGQGTMVTVSSASTKGPSVFPLAPSSKSTSGGTAALGCLVKDYFPEPVTVSWNSGALTSGVHTFPAVLQSSGLYSLSSVVTVPSSSLGTQTYICNVNHKPSNTKVDKKVEPKSCDKTHTCPPCPAPEFEGGPSVFLFPPKPKDTLMISRTPEVTCVVVAVSHEDPEVKFNWYVDGVEVHNAKTKPREEQYNSTYRVVSVLTVLHQDWLNGKEYKCKVSNKALPAPIEKTISKAKGQPREPQVYTLPPSREEMTKNQVSLTCLVKGFYPSDIAVEWESNGQPENNYKTTPPVLDSDGSFFLYSKLTVDKSRWQQGNVFSCSVMHEALHNHYTQKSLSLSPGGGGGSGGGGSGGGGSGGGGSGGGGSGGGGSSYVLTQPSSVSVAPGQTATISCGGHNIGSKNVHWYQQRPGQSPVLVIYQDNKRPSGIPERFSGSNSGNTATLTISGTQAMDEADYYCQVWDNYSVLFGGGTKLTVLGGSGGSGGSGGSGGSGGSGGSQVQLVQSGAEVKKPGESLKVSCKASGYTFTSYYMHWVRQAPGQGLEWMGAIEPMYGSTSYAQKFQGRVTMTRDTSTSTVYMELSSLRSEDTAVYYCARGSAYYYDFADYWGQGTLVTVSS light: QPVLTQPPSVSVAPGKTARITCGGNNIGSKSVHWYQQKPGQAPVLVIYYDSDRPSGIPERFSGSNSGNTATLTISRVEAGDEADYYCQVWDTSSDHVLFGGGTKLTVLGQPKAAPSVTLFPPSSEELQANKATLVCLISDFYPGAVTVAWKADSSPVKAGVETTTPSKQSNNKYAASSYLSLTPEQWKSHRSYSCQVTHEGSTVEKTVAPTECS	9.3	9.2	16.2	151	10	6.9	3510

Reference: US20240376208A1 (AFFIMED, published 2024)
